Patent US20070269439A1 (published 2007)
Where “and” joins values, the source holds several entries; their conditions need not be identical. Identical values can stand only once.

T1: IL17RLP (Met-(-19) through Gly-270 of SEQ ID NO:2)-Fc fusion (human, UniProt Q9NRM6 18-289)
T1 construct: also called IL17RLP-Fc; soluble IL17RLP-Fc fusion protein; not shown: human Fc domain (heavy chain constant region of IgG1)
T1 sequence: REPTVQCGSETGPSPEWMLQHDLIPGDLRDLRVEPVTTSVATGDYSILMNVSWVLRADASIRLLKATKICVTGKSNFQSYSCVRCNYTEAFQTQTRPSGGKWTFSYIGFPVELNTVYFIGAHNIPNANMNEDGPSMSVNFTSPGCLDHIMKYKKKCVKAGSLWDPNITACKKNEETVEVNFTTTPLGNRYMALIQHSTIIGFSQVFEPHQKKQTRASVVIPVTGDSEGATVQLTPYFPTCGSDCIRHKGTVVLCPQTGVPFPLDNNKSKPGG


What was measured:
[1] = molecular target: IL-17 receptor (receptor of the first BIACORE screen of Example 8; construct not stated) (Homo sapiens (Human)) (UniProt Q96F46); test: BIACORE SPR; IL-17 at 25 ug/mL
[2] = molecular target: IL-17 receptor (receptor of the first BIACORE screen of Example 8; construct not stated) (Homo sapiens (Human)) (UniProt Q96F46); test: BIACORE SPR; conditioned CHO culture supernatant, IL-20 concentration estimated at ~25 ug/mL
[3] = molecular target: T2, IL-17 receptor (Met-1 through Asp-315)-Fc (human, UniProt Q96F46 33-315); test: BIACORE SPR (summary of Example 8)
T2 construct: range 1-315; also called IL17R-Fc; huIL-17R extracellular domain-Fc; not shown: human Fc domain (heavy chain constant region of IgG1)
Experimental: (§1) Binding Analyses—IL-20 protein was dialyzed against 10 mM sodium acetate buffer, pH 5 and a BIACORE™ flow cell was prepared for each receptor at densities of 7900 and 9600 RU for IL-17R and IL17RLP, respectively. Various concentrations of purified IL-20 and IL-17 (R&D Systems, Minneapolis, Minn.) in 50 microliters herpes-buffered saline (HBS) buffer were examined for receptor binding at a flow rate of 15 microliters per minute. After injection of sample the flow cell was equilibrated with HBS. Flow cells were regenerated using two 40 sec pulses of 10 mM HCl.

[4] = molecular target: T1, IL17RLP (Met-(-19) through Gly-270 of …); test: BIACORE SPR (summary of Example 8)
Experimental: as §1

Sequence of Recombinant human IL-17 (R&D Systems) (Q16552 20-155 limits assumed): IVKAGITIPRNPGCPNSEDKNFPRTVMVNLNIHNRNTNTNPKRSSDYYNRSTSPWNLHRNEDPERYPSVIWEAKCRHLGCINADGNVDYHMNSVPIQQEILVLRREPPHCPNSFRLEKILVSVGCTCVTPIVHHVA
T2 sequence (Q96F46 33-315 limits assumed): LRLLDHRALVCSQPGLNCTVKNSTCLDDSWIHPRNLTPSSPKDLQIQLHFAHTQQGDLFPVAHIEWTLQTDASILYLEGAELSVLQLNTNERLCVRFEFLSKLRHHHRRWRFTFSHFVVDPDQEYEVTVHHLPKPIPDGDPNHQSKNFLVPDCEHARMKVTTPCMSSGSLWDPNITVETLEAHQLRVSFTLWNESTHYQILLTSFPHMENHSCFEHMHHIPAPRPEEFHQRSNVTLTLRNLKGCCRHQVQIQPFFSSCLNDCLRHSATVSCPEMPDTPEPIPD

Row | SPR binding response (RU) [1] | SPR binding response (RU) [2] | binding result [3] | binding result [4] | Molecule
1 | 60 RU | – | – | – | Recombinant human IL-17 (R&D Systems) (from UniProt Q16552 20-155) (ligand)
2 | – | 115 RU and 65 RU | binds | binds | recombinant human IL-20 expressed in CHO cells (purified protein or conditioned culture supernatant) (ligand, The complete ORF was expressed in CHO cells and the protein was secreted; The preparation is heterogeneous; Residues 23-180 is the longest species observed; GenBank AF212311 is printed; also called hIL-20; huIL-20) RSPKSKRKGQGRPGPLAPGPHQVPLDLVSRMKPYARMEEYERNIEEMVAQLRNSSELAQRKCEVNLQLWMSNKRSLSPWGYSINHDPSRIPVDLPEARCLCLGCVNPFTMQEDRSMVSVPVFSQVPVRRRLCPPPPRTGPCRQRAVMETIAVGCTCIF
